Stoichiometry N data for one molecule are collected here from article PMC6778039.

In the assay the target is T1, ^35S-IRF3, Q14653.
T1 chain: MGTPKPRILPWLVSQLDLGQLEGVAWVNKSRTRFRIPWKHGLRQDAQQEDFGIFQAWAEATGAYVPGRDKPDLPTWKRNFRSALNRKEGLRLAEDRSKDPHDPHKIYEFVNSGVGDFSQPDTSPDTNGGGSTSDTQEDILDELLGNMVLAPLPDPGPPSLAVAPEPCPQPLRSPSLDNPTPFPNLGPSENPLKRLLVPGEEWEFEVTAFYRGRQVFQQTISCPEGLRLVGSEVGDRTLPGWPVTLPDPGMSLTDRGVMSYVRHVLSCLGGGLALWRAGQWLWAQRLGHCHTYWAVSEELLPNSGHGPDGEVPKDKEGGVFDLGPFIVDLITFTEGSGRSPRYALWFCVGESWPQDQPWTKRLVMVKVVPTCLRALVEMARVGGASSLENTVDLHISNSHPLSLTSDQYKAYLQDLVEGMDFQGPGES
Nature of the assay: native gel or EMSA. Conditions: remark: other sources report otherwise.

B1: ^35S-IRF3, Q14653 1-427 (natural protein)
chain: T1 chain
modifications: here or on the partner: 35S label; 35S label
For the molecule B1, the stoichiometry N came out at 2.
